Measurements from patent US10941182 (Amgen, dated 2021).
Non-standard residues stand in square brackets, D forms with d. dBip = N[C@H](Cc1ccc(-c2ccccc2)cc1)C(=O)O; Oic = O=C(O)[C@@H]1C[C@@H]2CCCC[C@@H]2N1; Phe(4-Cl) = N[C@@H](Cc1ccc(Cl)cc1)C(=O)O; Phe(4-I) = N[C@@H](Cc1ccc(I)cc1)C(=O)O; NMehArg = CN[C@@H](CCCCNC(=N)N)C(=O)O; hArg = N=C(N)NCCCC[C@H](N)C(=O)O; NMeL = CN[C@@H](CC(C)C)C(=O)O; Nle = CCCC[C@H](N)C(=O)O

T1: rat APJ receptor (rat, UniProt Q9JHG3 1-377)
T1 sequence (looked up): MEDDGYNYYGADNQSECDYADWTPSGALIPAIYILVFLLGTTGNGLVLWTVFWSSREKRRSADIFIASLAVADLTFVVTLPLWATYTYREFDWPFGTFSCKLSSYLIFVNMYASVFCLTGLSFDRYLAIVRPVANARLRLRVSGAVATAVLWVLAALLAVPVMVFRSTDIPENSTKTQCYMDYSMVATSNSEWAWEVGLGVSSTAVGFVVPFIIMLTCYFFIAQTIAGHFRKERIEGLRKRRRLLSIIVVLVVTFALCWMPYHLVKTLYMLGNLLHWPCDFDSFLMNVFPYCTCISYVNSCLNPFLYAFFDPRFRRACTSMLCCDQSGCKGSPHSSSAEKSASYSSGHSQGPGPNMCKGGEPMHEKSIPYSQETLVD

T2: human APJ receptor (human, UniProt P35414 1-380)
T2 sequence (looked up): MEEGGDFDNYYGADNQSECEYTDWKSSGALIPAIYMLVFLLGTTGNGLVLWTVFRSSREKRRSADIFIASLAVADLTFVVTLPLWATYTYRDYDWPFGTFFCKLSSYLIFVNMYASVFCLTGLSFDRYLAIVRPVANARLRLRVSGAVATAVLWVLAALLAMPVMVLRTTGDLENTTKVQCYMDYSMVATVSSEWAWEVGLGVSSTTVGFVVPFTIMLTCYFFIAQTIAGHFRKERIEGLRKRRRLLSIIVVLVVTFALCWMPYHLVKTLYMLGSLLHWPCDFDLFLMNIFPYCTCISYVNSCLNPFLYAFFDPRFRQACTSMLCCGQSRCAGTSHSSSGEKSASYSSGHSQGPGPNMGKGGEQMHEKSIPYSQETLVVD


Columns and labels:
[1] = target: T1, rat APJ receptor; test: cell-based or functional assay
[2] = target: T2, human APJ receptor; test: cell-based or functional assay

Binder	EC50 Rat APJ Receptor [1]	EC50 Human APJ Receptor [2]
Ac-E[dR]Q[hArg]P[dR][NMeL]SHKG[Oic][Phe(4-I)]P[dBip]-OH [SEQ ID NO: 75]	0.00108 µM	0.00156 µM
Ac-[hArg][dR]QEP[dR][NMeL]SHKG[Oic][Phe(4-I)]P[dBip]-OH [SEQ ID NO: 77]	0.00284 µM	0.00492 µM
Ac-[hArg][dR]Q[hArg]P[dR]ESHKG[Oic][Phe(4-I)]P[dBip]-OH (SMILES CC(=O)N[C@@H](CCCCNC(=N)N)C(=O)N[C@H](CCCNC(=N)N)C(=O)N[C@@H](CCC(N)=O)C(=O)N[C@@H](CCCCNC(=N)N)C(=O)N1CCC[C@H]1C(=O)N[C@H](CCCNC(=N)N)C(=O)N[C@@H](CCC(=O)O)C(=O)N[C@@H](CO)C(=O)N[C@@H](Cc1c[nH]cn1)C(=O)N[C@@H](CCCCN)C(=O)NCC(=O)N1[C@H](C(=O)N[C@@H](Cc2ccc(I)cc2)C(=O)N2CCC[C@H]2C(=O)N[C@H](Cc2ccc(-c3ccccc3)cc2)C(=O)O)C[C@@H]2CCCC[C@@H]21) [SEQ ID NO: 80]	0.0687 µM	0.127 µM
Ac-[hArg][dR]Q[hArg]P[dR][NMeL]EHKG[Oic][Phe(4-I)]P[dBip]-OH (SMILES CC(=O)N[C@@H](CCCCNC(=N)N)C(=O)N[C@H](CCCNC(=N)N)C(=O)N[C@@H](CCC(N)=O)C(=O)N[C@@H](CCCCNC(=N)N)C(=O)N1CCC[C@H]1C(=O)N[C@H](CCCNC(=N)N)C(=O)N(C)[C@@H](CC(C)C)C(=O)N[C@@H](CCC(=O)O)C(=O)N[C@@H](Cc1c[nH]cn1)C(=O)N[C@@H](CCCCN)C(=O)NCC(=O)N1[C@H](C(=O)N[C@@H](Cc2ccc(I)cc2)C(=O)N2CCC[C@H]2C(=O)N[C@H](Cc2ccc(-c3ccccc3)cc2)C(=O)O)C[C@@H]2CCCC[C@@H]21) [SEQ ID NO: 81]	0.0706 µM	0.0838 µM
Ac-[hArg][dR]Q[hArg]P[dR][NMeL]SHKE[Oic][Phe(4-I)]P[dBip]-OH (SMILES CC(=O)N[C@@H](CCCCNC(=N)N)C(=O)N[C@H](CCCNC(=N)N)C(=O)N[C@@H](CCC(N)=O)C(=O)N[C@@H](CCCCNC(=N)N)C(=O)N1CCC[C@H]1C(=O)N[C@H](CCCNC(=N)N)C(=O)N(C)[C@@H](CC(C)C)C(=O)N[C@@H](CO)C(=O)N[C@@H](Cc1c[nH]cn1)C(=O)N[C@@H](CCCCN)C(=O)N[C@@H](CCC(=O)O)C(=O)N1[C@H](C(=O)N[C@@H](Cc2ccc(I)cc2)C(=O)N2CCC[C@H]2C(=O)N[C@H](Cc2ccc(-c3ccccc3)cc2)C(=O)O)C[C@@H]2CCCC[C@@H]21) [SEQ ID NO: 84]	0.0893 µM	0.0181 µM
Ac-[hArg][dR]Q[hArg]P[dR][NMeL]SHKGE[Phe(4-I)]P[dBip]-OH (SMILES CC(=O)N[C@@H](CCCCNC(=N)N)C(=O)N[C@H](CCCNC(=N)N)C(=O)N[C@@H](CCC(N)=O)C(=O)N[C@@H](CCCCNC(=N)N)C(=O)N1CCC[C@H]1C(=O)N[C@H](CCCNC(=N)N)C(=O)N(C)[C@@H](CC(C)C)C(=O)N[C@@H](CO)C(=O)N[C@@H](Cc1c[nH]cn1)C(=O)N[C@@H](CCCCN)C(=O)NCC(=O)N[C@@H](CCC(=O)O)C(=O)N[C@@H](Cc1ccc(I)cc1)C(=O)N1CCC[C@H]1C(=O)N[C@H](Cc1ccc(-c2ccccc2)cc1)C(=O)O) [SEQ ID NO: 85]	> 4.17 µM	> 4.17 µM

Continued, values first:

EC50 Rat APJ Receptor [1]	EC50 Human APJ Receptor [2]	Binder
> 4.17 µM	> 4.17 µM	Ac-[hArg][dR]Q[hArg]P[dR][NMeL]SHKG[Oic]EP[dBip]-OH (SMILES CC(=O)N[C@@H](CCCCNC(=N)N)C(=O)N[C@H](CCCNC(=N)N)C(=O)N[C@@H](CCC(N)=O)C(=O)N[C@@H](CCCCNC(=N)N)C(=O)N1CCC[C@H]1C(=O)N[C@H](CCCNC(=N)N)C(=O)N(C)[C@@H](CC(C)C)C(=O)N[C@@H](CO)C(=O)N[C@@H](Cc1c[nH]cn1)C(=O)N[C@@H](CCCCN)C(=O)NCC(=O)N1[C@H](C(=O)N[C@@H](CCC(=O)O)C(=O)N2CCC[C@H]2C(=O)N[C@H](Cc2ccc(-c3ccccc3)cc2)C(=O)O)C[C@@H]2CCCC[C@@H]21) [SEQ ID NO: 86]
0.0539 µM	0.0232 µM	Ac-[hArg][dR]Q[hArg]P[dR][NMeL]SEKG[Oic][Phe(4-I)]P[dBip]-OH (SMILES CC(=O)N[C@@H](CCCCNC(=N)N)C(=O)N[C@H](CCCNC(=N)N)C(=O)N[C@@H](CCC(N)=O)C(=O)N[C@@H](CCCCNC(=N)N)C(=O)N1CCC[C@H]1C(=O)N[C@H](CCCNC(=N)N)C(=O)N(C)[C@@H](CC(C)C)C(=O)N[C@@H](CO)C(=O)N[C@@H](CCC(=O)O)C(=O)N[C@@H](CCCCN)C(=O)NCC(=O)N1[C@H](C(=O)N[C@@H](Cc2ccc(I)cc2)C(=O)N2CCC[C@H]2C(=O)N[C@H](Cc2ccc(-c3ccccc3)cc2)C(=O)O)C[C@@H]2CCCC[C@@H]21) [SEQ ID NO: 82]
0.0173 µM	0.00048 µM	Ac-Q[hArg][NMehArg]LSHKGP[Nle]P[Phe(4-Cl)]-OH (SMILES CCCC[C@H](NC(=O)[C@@H]1CCCN1C(=O)CNC(=O)[C@H](CCCCN)NC(=O)[C@H](Cc1c[nH]cn1)NC(=O)[C@H](CO)NC(=O)[C@H](CC(C)C)NC(=O)[C@H](CCCCNC(=N)N)N(C)C(=O)[C@H](CCCCNC(=N)N)NC(=O)[C@H](CCC(N)=O)NC(C)=O)C(=O)N1CCC[C@H]1C(=O)N[C@@H](Cc1ccc(Cl)cc1)C(=O)O) [SEQ ID NO: 74]
0.0589 µM	0.0527 µM	Ac-[hArg][dR]Q[hArg]P[dR][NMeL]SHKG[Oic][Phe(4-I)]E[dBip]-OH (SMILES CC(=O)N[C@@H](CCCCNC(=N)N)C(=O)N[C@H](CCCNC(=N)N)C(=O)N[C@@H](CCC(N)=O)C(=O)N[C@@H](CCCCNC(=N)N)C(=O)N1CCC[C@H]1C(=O)N[C@H](CCCNC(=N)N)C(=O)N(C)[C@@H](CC(C)C)C(=O)N[C@@H](CO)C(=O)N[C@@H](Cc1c[nH]cn1)C(=O)N[C@@H](CCCCN)C(=O)NCC(=O)N1[C@H](C(=O)N[C@@H](Cc2ccc(I)cc2)C(=O)N[C@@H](CCC(=O)O)C(=O)N[C@H](Cc2ccc(-c3ccccc3)cc2)C(=O)O)C[C@@H]2CCCC[C@@H]21) [SEQ ID NO: 87]
0.0847 µM	0.0545 µM	Ac-[hArg][dR]Q[hArg]P[dR][NMeL]SHEG[Oic][Phe(4-I)]P[dBip]-OH (SMILES CC(=O)N[C@@H](CCCCNC(=N)N)C(=O)N[C@H](CCCNC(=N)N)C(=O)N[C@@H](CCC(N)=O)C(=O)N[C@@H](CCCCNC(=N)N)C(=O)N1CCC[C@H]1C(=O)N[C@H](CCCNC(=N)N)C(=O)N(C)[C@@H](CC(C)C)C(=O)N[C@@H](CO)C(=O)N[C@@H](Cc1c[nH]cn1)C(=O)N[C@@H](CCC(=O)O)C(=O)NCC(=O)N1[C@H](C(=O)N[C@@H](Cc2ccc(I)cc2)C(=O)N2CCC[C@H]2C(=O)N[C@H](Cc2ccc(-c3ccccc3)cc2)C(=O)O)C[C@@H]2CCCC[C@@H]21) [SEQ ID NO: 83]
